According to EP1379283B1, “IDENTIFICATION OF TARGET-SPECIFIC FOLDING SITES IN PEPTIDES AND PROTEINS” (Palatin Technologies, Inc., priority 2000, dated 2002):
One block for each binder: values may come before it. Square brackets hold non-standard residues; d marks the D form. Ends that are not written are not given here. * marks the point of attachment. Cyclohexylacetyl(1-SH) = O=C(CC1(S)CCCCC1)*; Cyclohexylacetyl = O=C(CC1CCCCC1)*; dChg = N[C@@H](C(=O)O)C1CCCCC1; Chg = N[C@H](C(=O)O)C1CCCCC1; Nle = CCCC[C@H](N)C(=O)O; Orn = NCCC[C@H](N)C(=O)O; Dap = NC[C@H](N)C(=O)O

Legend:
[1] = target: MC1-R of B-16 mouse melanoma cells (mouse) (UniProt Q01727); assay: competition with 0.4 nM 125I-NDP-alpha-MSH on B-16 mouse melanoma cell membranes, metallopeptide at 1 µM
Sequence of MC1-R of B-16 mouse melanoma cells (mouse) (Q01727 whole entry): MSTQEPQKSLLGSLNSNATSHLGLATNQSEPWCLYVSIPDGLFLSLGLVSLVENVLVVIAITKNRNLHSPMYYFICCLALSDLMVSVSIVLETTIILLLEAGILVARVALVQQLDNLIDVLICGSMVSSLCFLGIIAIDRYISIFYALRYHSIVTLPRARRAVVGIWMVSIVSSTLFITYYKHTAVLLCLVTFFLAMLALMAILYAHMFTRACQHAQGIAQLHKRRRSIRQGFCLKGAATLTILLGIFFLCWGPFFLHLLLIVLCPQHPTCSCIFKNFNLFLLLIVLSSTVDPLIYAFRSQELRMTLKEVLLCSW

[2] = target: oxytocin receptor of rat uterus cell membranes (rat) (UniProt P70536); assay: competition with 3H-oxytocin on rat uterus membranes, metallopeptide at 1 µM
Sequence of oxytocin receptor of rat uterus cell membranes (rat) (P70536 whole entry): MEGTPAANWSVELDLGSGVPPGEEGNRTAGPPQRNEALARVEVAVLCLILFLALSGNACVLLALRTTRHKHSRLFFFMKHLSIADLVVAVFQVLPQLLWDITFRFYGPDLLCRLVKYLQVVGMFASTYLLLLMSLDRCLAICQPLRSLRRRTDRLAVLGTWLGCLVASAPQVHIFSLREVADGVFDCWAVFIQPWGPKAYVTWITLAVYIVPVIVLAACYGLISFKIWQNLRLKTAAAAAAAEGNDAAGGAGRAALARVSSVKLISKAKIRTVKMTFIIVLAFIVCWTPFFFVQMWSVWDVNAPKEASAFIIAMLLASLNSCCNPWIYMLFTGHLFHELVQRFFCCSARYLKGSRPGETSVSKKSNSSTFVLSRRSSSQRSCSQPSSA

[3] = target: vasopressin-1 receptor of rat liver cell membranes (rat) (UniProt P30560); assay: competition with 3H-vasopressin-1 antagonist on rat liver membranes, metallopeptide at 1 µM
Sequence of vasopressin-1 receptor of rat liver cell membranes (rat) (P30560 whole entry): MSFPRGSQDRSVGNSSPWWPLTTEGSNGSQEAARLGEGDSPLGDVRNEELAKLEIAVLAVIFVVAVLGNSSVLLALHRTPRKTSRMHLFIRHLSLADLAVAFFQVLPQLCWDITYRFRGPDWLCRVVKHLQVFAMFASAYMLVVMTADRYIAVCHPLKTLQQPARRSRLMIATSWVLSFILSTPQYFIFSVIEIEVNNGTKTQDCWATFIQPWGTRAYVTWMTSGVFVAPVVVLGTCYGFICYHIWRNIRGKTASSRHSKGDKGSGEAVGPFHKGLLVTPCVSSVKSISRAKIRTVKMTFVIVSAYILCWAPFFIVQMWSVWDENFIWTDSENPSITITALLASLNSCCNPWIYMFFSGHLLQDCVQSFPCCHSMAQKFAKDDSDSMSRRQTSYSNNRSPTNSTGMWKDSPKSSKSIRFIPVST

hMC3-R (human) = hMC3-R (human) (UniProt P41968); assay: competition with 0.4 nM 125I-NDP-alpha-MSH on hMC3-R membranes, metallopeptide at 1 µM
Sequence of hMC3-R (human) (P41968 whole entry): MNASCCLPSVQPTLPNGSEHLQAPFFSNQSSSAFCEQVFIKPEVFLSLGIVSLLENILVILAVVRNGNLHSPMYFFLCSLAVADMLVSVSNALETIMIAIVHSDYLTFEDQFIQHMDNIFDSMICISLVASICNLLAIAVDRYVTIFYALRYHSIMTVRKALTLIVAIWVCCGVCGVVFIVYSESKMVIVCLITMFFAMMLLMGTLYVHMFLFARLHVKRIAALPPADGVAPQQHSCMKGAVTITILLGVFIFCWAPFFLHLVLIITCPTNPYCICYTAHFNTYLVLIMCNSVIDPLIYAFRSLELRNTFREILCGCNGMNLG

hMC4-R (human) = hMC4-R (human) (UniProt P32245); assay: competition with 0.4 nM 125I-NDP-alpha-MSH on hMC4-R membranes, metallopeptide at 1 µM
Sequence of hMC4-R (human) (P32245 whole entry): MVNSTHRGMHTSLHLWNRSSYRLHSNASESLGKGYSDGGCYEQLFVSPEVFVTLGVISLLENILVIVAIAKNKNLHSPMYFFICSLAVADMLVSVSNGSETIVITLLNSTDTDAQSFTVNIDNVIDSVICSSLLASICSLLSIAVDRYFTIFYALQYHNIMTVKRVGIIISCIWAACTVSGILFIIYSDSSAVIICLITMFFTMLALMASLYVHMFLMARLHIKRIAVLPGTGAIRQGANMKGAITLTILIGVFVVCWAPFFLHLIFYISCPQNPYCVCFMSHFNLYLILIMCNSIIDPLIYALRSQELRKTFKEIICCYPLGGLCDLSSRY

hMC5-R (human) = hMC5-R (human) (UniProt P33032); assay: competition with 0.4 nM 125I-NDP-alpha-MSH on hMC5-R membranes, metallopeptide at 1 µM
Sequence of hMC5-R (human) (P33032 whole entry): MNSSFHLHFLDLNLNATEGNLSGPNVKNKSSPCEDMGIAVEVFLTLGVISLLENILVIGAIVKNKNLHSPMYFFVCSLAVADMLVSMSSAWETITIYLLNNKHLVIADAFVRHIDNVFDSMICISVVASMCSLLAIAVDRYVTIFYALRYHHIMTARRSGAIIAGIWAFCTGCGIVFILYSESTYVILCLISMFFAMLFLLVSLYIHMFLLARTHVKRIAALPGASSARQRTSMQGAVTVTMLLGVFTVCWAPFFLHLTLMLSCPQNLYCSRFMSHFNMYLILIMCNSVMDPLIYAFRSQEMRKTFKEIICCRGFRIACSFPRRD

% Inhibition at 1 µM [2]: 0% | % Inhibition at 1 µM [3]: 0%
B2: Re-complexed Caca-D-Trp-Ile-Thr-Dap-Ala-Cys-Ala-Orn-NH2 (peptide)
peptide: Cyclohexylacetyl-[dW]IT[Dap]ACA[Orn]-NH2
modifications: not fully specified (bridges); printed as Caca-D-Trp-Ile-Thr-*Dap-Ala-Cys*-Ala-Orn-NH₂; numbers in words are those of the source; also: Cys7 complexed to rhenium-oxo (Re=O)

% Inhibition at 1 µM [2]: 0% | % Inhibition at 1 µM [3]: 8%
B3: Re-complexed D-Chg-D-Trp-Cys-Ile-Thr-Dap-Ala-Pro-Orn-NH2 (peptide)
peptide: [dChg][dW]CIT[Dap]AP[Orn]-NH2
modifications: bridge (positions not given here); not fully specified (bridges); printed as Re-complexed D-Chg-D-Trp-Cys-Ile-Thr-Dap-Ala-Pro-Orn-NH2; also: oxorhenium(V) metal complex

% Inhibition at 1 µM [2]: 9% | % Inhibition at 1 µM [3]: 22%
B5: Re-complexed Caca-D-Trp-Ile-Thr-Dap-Cys-Ala-Pro-Orn-NH2 (peptide)
peptide: Cyclohexylacetyl-[dW]IT[Dap]CAP[Orn]-NH2
modifications: not fully specified (bridges); printed as Caca-D-Trp-Ile-*Thr-Dap-Cys*-Ala-Pro-Orn-NH₂; numbers in words are those of the source; also: Cys6 complexed to rhenium-oxo (Re=O)

% Inhibition at 1 µM [2]: 0% | % Inhibition at 1 µM [3]: 0%
B9: Re-complexed Caca-D-Trp-Ile-Thr-Dap-Ala-Cys-Pro-Orn-NH2 (peptide)
peptide: Cyclohexylacetyl-[dW]IT[Dap]ACP[Orn]-NH2
modifications: not fully specified (bridges); printed as Caca-D-Trp-Ile-Thr-*Dap-Ala-Cys*-Pro-Orn-NH₂; numbers in words are those of the source; also: Cys7 complexed to rhenium-oxo (Re=O)

% Inhibition at 1 µM [2]: 0% | % Inhibition at 1 µM [3]: 0%
B10: Re-complexed Chg-D-Trp-Cys-Ile-Thr-Dap-Ala-Pro-Orn-NH2 (peptide)
peptide: [Chg][dW]CIT[Dap]AP[Orn]-NH2
modifications: not fully specified (bridges); printed as Re-complexed Chg-D-Trp-Cys-Ile-Thr-Dap-Ala-Pro-Orn-NH2; also: Cys3 complexed to rhenium-oxo (Re=O)

% Inhibition at 1 µM [2]: 0% | % Inhibition at 1 µM [3]: 23%
B13: Re-complexed Pmp-D-Trp-Cys-Ile-Thr-Dap-Ala-Pro-Orn-NH2 (peptide)
peptide: {Cyclohexylacetyl(1-SH)}-[dW]CIT[Dap]AP[Orn]-NH2
modifications: not fully specified (bridges); printed as *Pmp-D-Trp-Cys*-Ile-Thr-Dap-Ala-Pro-Orn-NH₂; numbers in words are those of the source; also: Cys3 complexed to rhenium-oxo (Re=O)

% Inhibition at 1 µM [2]: 0% | % Inhibition at 1 µM [3]: 23%
B14: Re-complexed Caca-D-Trp-Ile-Thr-Dap-Ala-Ala-Orn-Cys-NH2 (peptide)
peptide: Cyclohexylacetyl-[dW]IT[Dap]AA[Orn]C-NH2
modifications: numbers in words are those of the source; also: rhenium-oxo (Re(V)=O) complex at Cys9

The remaining lines, values behind:

B1: Re-complexed Ac-Nle-Ala-His-D-Phe-Arg-Cys-Trp-NH2 (peptide)
peptide: XAHFRCW
modifications: N-terminal acetyl; X at 1 = Nle; D-Phe at 4; Cys 6 complexed to a rhenium-oxo (Re) metal ion; C-terminal amide
% Inhibition at 1 µM [1]: 96%

B4: Re-complexed Caca-D-Trp-Ile-Cys-Thr-Dap-Ala-Pro-Orn-NH2 (peptide)
peptide: Cyclohexylacetyl-[dW]ICT[Dap]AP[Orn]-NH2
modifications: not fully specified (bridges); printed as Caca-D-*Trp-Ile-Cys*-Thr-Dap-Ala-Pro-Orn-NH₂; numbers in words are those of the source; also: Cys4 complexed to rhenium-oxo (Re=O)
% Inhibition at 1 µM [2]: 0% | % Inhibition at 1 µM [3]: 52%

B6: Re-complexed Caca-D-Trp-Ile-Thr-Dap-Ala-Ala-Cys-Orn-NH2 (peptide)
peptide: Cyclohexylacetyl-[dW]IT[Dap]AAC[Orn]-NH2
modifications: numbers in words are those of the source; also: rhenium-oxo (Re(V)=O) complex at Cys8
% Inhibition at 1 µM [2]: 0% | % Inhibition at 1 µM [3]: 0%

B7: Re-complexed Caca-D-Trp-Ile-Thr-Cys-Dap-Ala-Pro-Orn-NH2 (peptide)
peptide: Cyclohexylacetyl-[dW]ITC[Dap]AP[Orn]-NH2
modifications: not fully specified (bridges); printed as Caca-D-Trp-*Ile-Thr-Cys*-Dap-Ala-Pro-Orn-NH₂; numbers in words are those of the source; also: Cys5 complexed to rhenium-oxo (Re=O)
% Inhibition at 1 µM [2]: 0% | % Inhibition at 1 µM [3]: 0%

B8: Re-complexed Ac-Nle-Ala-His-D-Phe-Arg-Trp-Cys-NH2 (peptide)
peptide: Ac-[Nle]AH[dF]RWC-NH2
modifications: bridge (positions not given here) via ReOCl3(PPh3)2; also: oxorhenium(V) metal complex
% Inhibition at 1 µM (hMC3-R (human)): 70% | % Inhibition at 1 µM (hMC4-R (human)): 98% | % Inhibition at 1 µM [1]: 91% | % Inhibition at 1 µM (hMC5-R (human)): 93%

B11: Re-complexed Ac-Nle-Ala-Cys-His-D-Phe-Arg-Trp-NH2 (peptide)
peptide: Ac-[Nle]ACH[dF]RW-NH2
modifications: bridge (positions not given here) via ReOCl3(PPh3)2; also: oxorhenium(V) N3S1 metal chelate (X-X-Cys)
% Inhibition at 1 µM (hMC3-R (human)): 47% | % Inhibition at 1 µM (hMC4-R (human)): 71% | % Inhibition at 1 µM [1]: 96% | % Inhibition at 1 µM (hMC5-R (human)): 64%

B12: Re-complexed Ac-Nle-Ala-His-D-Phe-Cys-Arg-Trp-NH2 (peptide)
peptide: Ac-[Nle]AH[dF]CRW-NH2
modifications: bridge (positions not given here) via ReOCl3(PPh3)2; also: oxorhenium(V) metal complex
% Inhibition at 1 µM (hMC3-R (human)): 15% | % Inhibition at 1 µM (hMC4-R (human)): 66% | % Inhibition at 1 µM [1]: 93% | % Inhibition at 1 µM (hMC5-R (human)): 57%

B15: Re-complexed Ac-Nle-Ala-His-Cys-D-Phe-Arg-Trp-NH2 (peptide)
peptide: Ac-[Nle]AHC[dF]RW-NH2
modifications: bridge (positions not given here) via ReOCl3(PPh3)2; also: oxorhenium(V) metal complex
% Inhibition at 1 µM (hMC3-R (human)): 9% | % Inhibition at 1 µM (hMC4-R (human)): 75% | % Inhibition at 1 µM [1]: 84% | % Inhibition at 1 µM (hMC5-R (human)): 58%
